Measurements from paper PMC8235110, “Effective Tumor Targeting by EphA2-Agonist-Biotin-Streptavidin Conjugates” (Molecules, 2021).
Entries after “also recorded” stand apart in the source; their conditions may differ. Blank lines part the entries; values can stand above or below the molecule they belong to. Square brackets hold non-standard residues; d marks the D form. Peptide text beside a SMILES is read from it. * marks the point of attachment. 4‑CH3‑Tyr = 4-CH3-Tyr: 4-methyl-tyrosine, a non-natural residue; 2Benzofuroyl(3-Me,6,7-diOMe) = COc1ccc2c(C)c(C(=O)*)oc2c1OC; Phe(4-Cl) = N[C@@H](Cc1ccc(Cl)cc1)C(=O)O; Hyp = O=C(O)[C@@H]1C[C@@H](O)CN1

Legend:
purified EphA2-LBD = biological target: T1, purified EphA2-LBD (Homo sapiens, UniProt P29317); test: reverse isothermal titration calorimetry (ITC); assay type: binding; conditions: reverse ITC titration with purified EphA2-LBD
T1 construct: made in house
T1 sequence (P29317 28-206 limits assumed): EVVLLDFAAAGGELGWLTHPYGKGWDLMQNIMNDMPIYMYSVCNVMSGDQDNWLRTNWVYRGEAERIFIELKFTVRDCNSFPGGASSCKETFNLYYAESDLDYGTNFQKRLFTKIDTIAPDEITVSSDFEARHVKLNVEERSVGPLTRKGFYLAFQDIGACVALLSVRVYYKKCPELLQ

[1] = biological target: T2, EphA2-LBD (6xHis-EphA2 ligand-binding domain) (Homo sapiens, UniProt P29317); test: DELFIA displacement of biotinylated EphA2-binding reference peptide; conditions: DELFIA dose-response; listed as scrambled version of 135H11
T2 construct: made in house
T2 sequence (P29317 28-206 limits assumed): as above

[2] = biological target: 6xHis-EphA2 ligand-binding domain; test: DELFIA displacement assay; earlier-generation biotinylated EphA2-binding reference peptide captured on streptavidin-coated 96-well plates; 6xHis-EphA2-LBD and Europium-conjugated anti-6xHis antibody added together with the test agent at various doses; residual fluorescence read after washing
Sequence of 6xHis-EphA2 ligand-binding domain (P29317 whole entry, the tested form may be a part): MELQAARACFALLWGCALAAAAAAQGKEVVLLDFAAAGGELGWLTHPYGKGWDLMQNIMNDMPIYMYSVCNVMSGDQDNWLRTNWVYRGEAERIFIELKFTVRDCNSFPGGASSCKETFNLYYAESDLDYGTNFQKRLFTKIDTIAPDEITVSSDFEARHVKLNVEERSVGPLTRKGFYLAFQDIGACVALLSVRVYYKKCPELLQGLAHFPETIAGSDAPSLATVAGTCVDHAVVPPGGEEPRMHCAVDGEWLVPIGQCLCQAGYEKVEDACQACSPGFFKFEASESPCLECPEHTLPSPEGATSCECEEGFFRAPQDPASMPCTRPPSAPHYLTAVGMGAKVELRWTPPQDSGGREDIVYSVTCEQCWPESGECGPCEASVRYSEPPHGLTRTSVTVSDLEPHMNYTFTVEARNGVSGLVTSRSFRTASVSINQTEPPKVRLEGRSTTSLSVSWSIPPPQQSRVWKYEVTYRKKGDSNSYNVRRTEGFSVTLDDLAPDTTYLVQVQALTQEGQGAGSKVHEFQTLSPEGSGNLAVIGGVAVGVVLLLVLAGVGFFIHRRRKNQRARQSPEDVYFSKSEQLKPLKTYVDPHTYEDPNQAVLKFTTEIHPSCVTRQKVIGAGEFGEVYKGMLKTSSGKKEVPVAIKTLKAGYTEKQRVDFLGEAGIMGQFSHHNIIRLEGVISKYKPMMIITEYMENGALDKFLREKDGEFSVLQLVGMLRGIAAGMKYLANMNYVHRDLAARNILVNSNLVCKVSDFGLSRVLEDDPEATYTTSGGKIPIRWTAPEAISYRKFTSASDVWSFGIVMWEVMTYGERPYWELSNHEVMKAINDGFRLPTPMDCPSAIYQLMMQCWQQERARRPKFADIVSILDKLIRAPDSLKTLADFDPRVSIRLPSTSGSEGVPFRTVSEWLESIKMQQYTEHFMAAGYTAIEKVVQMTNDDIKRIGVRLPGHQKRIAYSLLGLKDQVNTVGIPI

[3] = system: EphA2 in MDA-MB-231 cells; test: EphA2 receptor degradation, Western blot, MDA-MB-231; assay type: cell-based, human; conditions: 1 h; 147B5 50 nM to 200 nM with streptavidin 50 nM (n = 1 to 4); scrambled 200 nM; 135H12 50 and 200 nM monomer concentration; ephrinA1-Fc 22 nM monomer (1 μg/mL); total EphA2, anti-EphA2 blot, relative to DMSO, duplicate
EphA2 in BxPC3 cells = test: EphA2 receptor degradation, Western blot, BxPC3; assay type: cell-based, human; conditions: 1 h; 147B5 50 nM to 200 nM with streptavidin 50 nM (n = 1 to 4); scrambled 200 nM; 135H12 50 and 200 nM monomer concentration; ephrinA1-Fc 22 nM monomer (1 μg/mL); total EphA2, anti-EphA2 blot, relative to DMSO, duplicate
Text: (Table 1). […] In these cell-based assays, receptor activation and degradation could be simply monitored by detecting the ability of each agent to reduce EphA2 expression levels over time, after exposure of cells to test ligands. […] Negative controls were DMSO-treated cells or cells treated with the (scrambled 147B5)4-streptavidine complex (Figure 3).
For the control scrambled agent, we tested it at its maximal 4:1 molar ratio with streptavidin. For these experiments we treated cells with increasing concentrations of 147B5 (from 50 nM to 200 nM) in the absence or presence of streptavidin (50 nM). […]
Figure 4 Effect of 147B5 and its complexes with streptavidin at various ratios on EphA2 receptor degradation. […] (b) Densitometry analysis based on duplicate measurements of band intensities relative to the bands of DMSO-treated cells. * p ≤ 0.05, as determined by a one-way analysis of variance using Dunnett post-test analysis. […]
Cells were lysed with cell lysis buffer (20 mM Tris, pH 7.4, 120 mM NaCl, 1% Triton X-100, 0.5% sodium deoxycholate, 0.1% SDS, 1% IGEPAL, 5 mM EDTA), supplemented with EDTA-free Protease Inhibitor Cocktail and PhosStop (Sigma Aldrich) for 15 min on ice. […] Subsequently, Clarity Western ECL solution (BIO-RAD) was added to the blots prior to being imaged on a FluorChem (ProteinSimple) and analyzed with AlphaView software.

EphA2 = conditions: cited from earlier work
[4] = biological target: 6xHis-EphA2 ligand-binding domain; test: ITC; reverse ITC titration with purified EphA2-LBD

Kd (ITC) (purified EphA2-LBD; N.B. = no binding detected by ITC): N.B. (ITC) | binding to EphA2-LBD by ITC (in words) (purified EphA2-LBD; listed as 147B5 scrambled version): no appreciable binding was detected | binding to EphA2-LBD by ITC (in words) (purified EphA2-LBD; listed as scrambled version of 147B5): no binding detected
Molecule: (3-CH3,6,7-OCH3,Benzofuranoic acid)DP(4-CH3-Tyr)A(Hyp)LRG(4-Cl-Phe)PVA-GK(Biotin LC)-CONH2 [Scrambled-147B5, scrambled 135H11-biotinylated (control)]

Molecule: COc1ccc(C[C@H](NC(=O)[C@@H]2CCCN2C(=O)[C@H](CC(=O)O)NC(=O)c2oc3c(OC)c(OC)ccc3c2C)C(=O)N[C@@H](C)C(=O)N2C[C@H](O)C[C@H]2C(=O)N[C@@H](CC(C)C)C(=O)N[C@@H](CCCNC(=N)N)C(=O)NCC(=O)N[C@@H](Cc2ccc(Cl)cc2)C(=O)N2CCC[C@H]2C(=O)N[C@H](C(=O)N[C@@H](C)C(N)=O)C(C)C)cc1 [Scrambled-135H11] ({2Benzofuroyl(3-Me,6,7-diOMe)}-DPY(Me)A[Hyp]LRG[Phe(4-Cl)]PVA-NH2)
inhibition in DELFIA (in words) [1]: no inhibition

IC50 [2]: > 10 µM
Molecule: {2Benzofuroyl(3-Me,6,7-diOMe)}-DP[4‑CH3‑Tyr]A[Hyp]LRG[Phe(4-Cl)]PVA-NH2 [Scrambled-135H11]

B1: ephrinA1-Fc: dimeric ephrinA1-Fc chimera, positive control (protein)
chain: DRHTVFWNSSNPKFRNEDYTIHVQLNDYVDIICPHYEDHSVADAAMEQYILYLVEHEEYQLCQPQSKDQVRWQCNRPSAKHGPEKLSEKFQRFTPFTLGKEFKEGHSYYYISKPIHQHEDRCLRLKVTVSGKITHSPQAHDNPQEKRLAADDPEVRVLHSIGHS
modifications: left off: Fc, end not stated, kept
notes: dimeric ephrinA1-Fc chimera, positive control
EphA2 receptor degradation in MDA-MB-231 cells (in words) [3]: significant degradation of the EphA2 receptor; also recorded: very effective in causing EphA2 degradation | EphA2 receptor degradation in BxPC3 cells (in words) (EphA2 in BxPC3 cells): nearly complete degradation of the EphA2 receptor | receptor degradation, agonistic effectiveness in cells (in words) (EphA2; at nanomolar concentrations, ref [5],[28],[29],[30],[31],[34]): dramatically more effective as an agonist | EphA2 dimer formation, activation, internalization, degradation (in words) (EphA2; legend of schematic, no reference given): can efficiently induce dimer formation and receptor activation, internalization, and degradation

Kd [4]: 0.117 µM
B2: 147B5 (135H11-biotinylated) (peptide)
peptide: LAYPDAVPFRPGK
modifications: N-terminal 3-CH3,6,7-OCH3,Benzofuranoic acid; 4-CH3-Tyr at position 3; Hyp (trans 4-hydroxy-L-proline) at position 8; 4-Cl-Phe at position 9; K(Biotin LC) at position 13 (LC: long 6 atom hydrocarbon chain between the biotin and the amide bond); C-terminal amide (-CONH2)
